Patent US8263340B2, “Constitutively active mutants of the prolactin receptor” (Institut National de la Sante et de la Recherche Medicale …, priority 2007, dated 2012)

Assays:
mutant I76V = test: Effect of PRLR inhibitors on proliferation of Ba/F3 cells expressing mutant I76V; format: cell-based, murine; details: 3 days
Description: (§1) Cells were starved for 6 hours in 1% FCS RPMI medium with additives (no PRL), then distributed in 96 well-plates at a density of 5×10^4 cells/well in a final volume of 100 μL. One hundred μL, of [2×] hPRL (and/or antagonist) diluted in the same medium were added after starvation period. Cell survival/proliferation was estimated after 2-3 days of hormonal stimulation by adding 10-20 μL, of WST-1 tetrazolium salt, which is metabolized by living cells (BERNICHTEIN et al., Endocrine, 20, 177-190, 2003). Optical density at 450 nm (OD450) was measured after 1-3 hours of colorimetric reaction using an ELISA plate reader. The experiments were routinely performed at least three times in triplicate or quadruplicate.
Proliferation of stable Ba/F3 cell populations was evaluated in poor medium (1% FCS) in the presence of WT hPRL, or of the PRLR antagonist De11-9-G129R-hPRL, or of AG490, for 3 days. The results are illustrated in FIGS. 12 and 13.

WT PRLR cells = test: Effect of PRLR inhibitors on proliferation of Ba/F3 cells expressing WT PRLR; format: cell-based, murine; details: no PRL, 1% FCS, 3 days
Description: as §1, with “([…]” for “(BERNICHTEIN”, “quadruplicate. Proliferation of stable Ba/F3 cell populations was evaluated in poor medium (1% FCS) in the presence of WT hPRL, or of the PRLR antagonist De11-9-G129R-hPRL, or of AG490, for 3 days. The results are illustrated in FIGS. 12 and 13.” for “quadruplicate.”

Ba/F3 cells [1] = format: cell-based, murine; details: 1% FCS; for constitutive proliferation / survival: absence of PRL
Description: Ba/F3 cells are a pro-B murine cell line dependent on IL-3 for growth. Cells were transfected by electroporation using 5-20 μg of plasmid encoding the WT or mutated human PRLR(CMV promoter), then the populations stably expressing the receptor was selected by several passages in G418-containing medium. Ba/F3-hPRLR cells were routinely maintained in RPMI 1640 medium supplemented with 10% heat-inactivated FCS, 2 mM glutamine, 50 U/mL penicillin, 50 μg/mL streptomycin, 700 μg/mL G-418 (for selection of stably transfected cells), and 10-100 ng/mL WT hPRL instead of IL-3 as the growth factor.
as §1

hPRL = test: Binding affinity of WT and mutated PRLR for hPRL, [125I]-hPRL competition with Scatchard analysis, stably transfected HEK 293 cell homogenates; design: species or system human; details: stable HEK 293 clones, overnight at room temperature
Description: (§2) Binding affinities of mutated PRLR for hPRL were determined using cell homogenates of stably transfected HEK 293, following a procedure previously described (KINET et al., J Biol Chem, 274, 26033-26043, 1999). Briefly, recombinant hPRL, produced in bacteria E. coli using the pT7L expression vector, and purified as described previously (PARIS et al., Biotechnol Appl Biochem, 12, 436-449, 1990), was iodinated using the Iodogen method, and its specific activity was in the range of 4-5 μCi/μg. Binding assays were performed overnight at room temperature using 150-300 μg cell homogenate protein in the presence of 20,000-30,000 cpm [^125I]-hPRL and increasing concentrations of unlabeled hPRL (competitor). Scatchard analysis was performed to determine the binding affinity of mutated PRLR and the number of PRLR per cell in stable clones or populations.

[2] = tested on: LHRE-luciferase reporter (Stat5); test: LHRE-luciferase reporter assay in HEK 293 cells expressing WT or mutated hPRLR; format: cell-based, human
Source text: The human PRLR cDNA inserted into the pc/DNA3 eukaryotic vector (InVitrogen, Carlsbad, Calif.) has been generated as described previously (LOCHNAN et al, Mol Cell Endocrinol 114:91-99, 1995; GOFFIN et al, J Biol Chem 271:16573-16579, 1996). The PRLR-responsive LHRE-luciferase reporter gene carries the sequence encoding the firefly luciferase gene under the control of a 6-repeat sequence of the lactogenic hormone response element (LHRE) followed by the minimal thymidine kinase promoter (GOFFIN et al., J Biol Chem, 271, 16573-16579, 1996). LHRE is the DNA binding element of the signal transducer and activator of transcription Stat5, one of the signaling proteins activated by the PRLR once it is activated (WAKAO et al, EMBO J. 13, 2182-2191, 1994).
Cells were routinely cultured in DMEM medium supplemented with 10% FCS, 2 mM glutamine, 50 U/mL penicillin, 50 μg/mL streptomycin. Cells were co-transfected, using the lipofectamine method with two or three plasmids, one encoding the receptor of interest, one encoding the LHRE-firefly luciferase vector as a reporter of PRLR-mediated a effects, and one encoding the Renilla Luciferase which is expressed in a PRL-independent manner and serves as an internal control of transfection efficiency (DOS SANTOS et al., Nat Genet, 36, 720-724, 2004).
After trypsinization, cells were counted and aliquoted in 96-well plates at a density of 50,000 cells/100 μL/well. Plating medium contained 0.5% FCS to allow cell adhesion. Six to eighteen hours (overnight) after plating, cells were stimulated by addition to each well of 100 μL of PRL (1 μg/ml) diluted in FCS-free medium. After 24 hours of stimulation, culture medium was aspirated and cells were lyzed for at least 10 minutes in 50-100 μL of lysis buffer (Promega). Luciferase activity (only firefly luciferase for stable clones, and both firefly and renilla luciferases for transient transfections) for each experimental condition was counted in 10-20 μL of cell lysates for 10 seconds using a luminometer (Lumat LB 9501, Berthold, Nashua, N.H.). […]

Ba/F3 cells [3] = test: Cell cycle / apoptosis of transfected Ba/F3 stable populations by FACS (propidium iodine); format: cell-based, murine; details: minimal medium
Source text: The cell cycle of transfected Ba/F cells (stable populations) was studied by FACS analysis, using propidium iodine labelling as previously described (JEAY et al., Endocrinology 142:147-156, 2001). Cells were put in minimal medium, with or without PRL for the indicated time.

Stat5 = Stat5 phosphorylation by immunoprecipitation and western blot in Ba/F3 populations; format: cell-based, murine
Description: Stat5 is the main PRLR signalling mediator, and a known anti-apoptotic factor in Baf cells. Its phosphorylation was analyzed by immunoprecipitation and western blot, using the protocol described in Example 3 for the analysis of PRLR phosphorylation.
Immunoprecipitation was performed with anti-STAT5 antibodies (c17, SantaCruz). The membranes were incubated with anti-PY antibody (4G10, Upstate), and when required re-incubated with anti-STAT5 (c17, SantaCruz) antibodies.
The results are illustrated by FIG. 16: (−)=no PRL, (+)=0,5 μg/ml PRL.

PRLR phosphorylation = test: PRLR tyrosine phosphorylation by immunoprecipitation and western blot in transfected HEK 293 cells; format: cell-based, human
Description: Receptor phosphorylation on tyrosine residues is the first step of PRLR activation.
Transient or stable transfected cells were starved overnight in FCS-free medium before hormonal stimulation. The next day, cells were stimulated (5-30 min at 37° C.) using various concentrations of WT hPRL as indicated. At the end of the stimulation, cells were washed twice with ice-cold saline buffer and cell pellets were kept frozen until used. Cells were solubilized in 0.5-1 ml lysis buffer (30 min under gentle rotation at 4° C.). Lysates were centrifuged for 10 min at 13,000×g, then supernatants were quantified for their protein content by Bradford assay and used for immunoprecipitation.
For immunoprecipitation studies, 0.5-1 mg of total lysate were incubated with anti-human PRLR (anti extracellular domain of the human PRLR, Zymed, clone 1A2B1), used at 1-5 μl/ml. After overnight rotation at 4° C., immune complexes were captured using 20 μl Protein A Sepharose slurry for 1 additional hour rotation at 4° C. Protein A complexes were precipitated by centrifugation, pellets were washed 3 times in lysis buffer and boiled in 15 μl reducing SDS sample buffer for 5 min at 95° C. Finally, immunoprecipitated samples were analysed using 7.5% SDS-PAGE. Electrophoretic transfer onto nitrocellulose membranes (Bio-Rad) was performed as described (LLOVERA et al., Oncogene, 19, 4695-4705, 2000). […]

mutated PRLR = test: Binding affinity of the PRLR antagonist for mutated and WT PRLR (not shown); design: species or system human
Description: as §2
Similarly, the affinity for the pure PRLR antagonist De11-9-G129R-hPRL (BERNICHTEIN et al., J Biol Chem, 278, 35988-35999, 2003) is also identical for the mutants and the receptors (not shown).

N#CC(=Cc1ccc(O)c(O)c1)C(=O)NCc1ccccc1 [AG490, N-Benzyl-3,4-dihydroxy-benzylidenecyanoacetamide, reference compound]
inhibition of constitutive activation (proliferation) of mutant I76V (mutant I76V; 20 μM AG490, no PRL): partially inhibited
effect on basal proliferation of WT PRLR cells (WT PRLR cells): no effect

wild-type PRLR: wild-type human prolactin receptor (isoform 1), SEQ ID NO: 1, used as control
constitutive proliferation / survival (Ba/F3 cells [1]): hardly survived
Kd (hPRL): 0.64 nM
basal activity (unstimulated cells), luciferase ([2]; no PRL, compared to WT receptor): devoid of activity
fold stimulation induced by PRL ([2]; stable clones, PRL 1 μg/ml, 24 hours): 8 fold
apoptosis (Ba/F3 cells [3]; absence of PRL, 30 h): 50%
effect of PRL on apoptosis (Ba/F3 cells [3]; with PRL): PRL prevents this effect

B1: I76V: mutant human prolactin receptor wherein the Ile residue at position 76 is substituted by a Val residue (protein)
chain: QLPPGKPEIFKCRSPNKETFTCWWRPGTDGGLPTNYSLTYHREGETLMHECPDYITGGPNSCHFGKQYTSMWRTYVMMVNATNQMGSSFSDELYVDVTYIVQPDPPLELAVEVKQPEDRKPYLWIKWSPPTLIDLKTGWFTLLYEIRLKPEKAAEWEIHFAGQQTEFKILSLHPGQKYLVQVRCKPDHGYWSAWSPATFIQIPSDFTMNDTTVWISVAVLSAVICLIIVWAVALKGYSMVTCIFPPVPGPKIKGFDAHLLEKGKSEELLSALGCQDFPPTSDYEDLLVEYLEVDDSEDQHLMSVHSKEHPSQGMKPTYLDPDTDSGRGSCDSPSLLSEKCEEPQANPSTFYDPEVIEKPENPETTHTWDPQCISMEGKIPYFHAGGSKCSTWPLPQPSQHNPRSSYHNITDVCELAVGPAGAPATLLNEAGKDALKSSQTIKSREEGKATQQREVESFHSETDQDTPWLLPQEKTPFGSAKPLDYVEIHKVNKDGALSLLPKQRENSGKPKKPGTPENNKEYAKVSGVMDNNILVLVPDPHAKNVACFEESAKEAPPSLEQNQAEKALANFTATSSKCRLQLGGLDYLDPACFTHSFH
effect of PRL stimulation on phosphorylation of Stat5 (Stat5; 0,5 μg/ml PRL): can be increased
phosphorylation of Stat5 (Stat5; absence of PRL stimulation): moderate
effect of PRL on proliferation (Ba/F3 cells [1]; 10 or 100 ng/ml hPRL): further increased
constitutive proliferation / survival (Ba/F3 cells [1]): moderate but significant constitutive proliferation
Kd (hPRL): 0.44 nM
fold induction ([2]; transient transfections, normalized firefly/renilla luciferase): 5 fold
constitutive phosphorylation of PRLR (PRLR phosphorylation; absence of PRL stimulation): weaker
effect of PRL stimulation on PRLR phosphorylation (PRLR phosphorylation; with PRL stimulation): increased phosphorylation

B2: De11-9-G129R-hPRL: pure PRLR antagonist, variant of human prolactin, which interferes with the mechanism of receptor activation by PRL (protein)
chain: RCQVTLRDLFDRAVVLSHYIHNLSSEMFSEFDKRYTHGRGFITKAINSCHTSSLATPEDKEQAQQMNQKDFLSLIVSILRSWNEPLYHLVTEVRGMQEAPEAILSKAVEIEEQTKRLLERMELIVSQVHPETKENEIYPVWSGLPSLQMADEESRLSAYYNLLHCLRRDSHKIDNYLKLLKCRIIHNNNC
inhibition of constitutive activation (proliferation) of mutant I76V (mutant I76V; 10 μg/ml antagonist, no PRL): inhibited
affinity for mutants versus WT receptor (mutated PRLR): identical
effect on basal proliferation of WT PRLR cells (WT PRLR cells): no effect
